Data: patent US8299213B2, “Synthetic or natural peptides binding protein phosphatase 2A, identification method and uses” (Universite Pierre et Marie Curie (Paris 6), priority 2001, dated 2012)
“Also recorded” adds a separate entry of the source.

Legend:
[1] = target: T1, holoenzyme PP2A1 (Sus scrofa, UniProt P54612); assay: SPOT peptide membrane screened with holoenzyme PP2A1; type: binding, pig; details: for binding to the trimeric holoenzyme PP2A1: peptides on cellulose membrane, 4 μg/ml purified protein, antibodies against proteins A, B and C (FIGS. 1B, 2B)
T1 construct: Trimeric PP2A1 protein was purified to homogeneity from pig brain; from tissue; host or cells: pig brain
Excerpt: Trimeric PP2A1 protein was purified to homogeneity from pig brain.
(§1) Binding peptides derived from CK2α proteins (encoded by T parva protozoa) or Vpr protein (encoded by the HIV-1 virus) with PP2A were identified using the “spot peptides” technique described above (Frank and Overwing, 1996, Meth Mol Biol 66, 149-169).
(§2) The method consisted of synthesizing dodecapeptides, in situ on a cellulose membrane, at defined positions wherein the series of the sequence covered the whole sequence of the protein of interest (Vpr or CK2α). The peptides of two consecutive spots on the membrane overlap with an overlapped by two amino acids.
(§3) Sixty-eight (68) dodecapeptides covering the whole sequence of the Vpr protein of HIV-1 and two hundred and five (205) dodecapeptides covering the sequence for the CK2α protein of Theileria were synthesized and covalently bound to cellulose membranes.
(§4) Each prepared membrane was first saturated for 1 hour at ambient temperature with TBS containing 5% skimmed Régilait (milk) and 3% BSA then incubated overnight in the same buffer in the presence of 4 μg/ml of purified protein (subunit A of PP2A or holoenzyme PP2A1).
(§5) The membranes were washed 5 times for 15 minutes with a conventional TBST buffer (TBS+TWEEN) used for incubation then incubated a further 1 hour at ambient temperature with a second antibody (coupled with peroxidase).

[2] = target: T2, subunit A of PP2A (Homo sapiens, UniProt P30153); assay: SPOT peptide membrane screened with structural subunit A of PP2A; type: binding; details: peptides on cellulose membrane, 4 μg/ml purified protein, antibody against protein A (FIGS. 1A, 2A)
T2 construct: made in house; host or cells: E. coli
Excerpt: A recombinant structural subunit of PP2A was expressed in E. coli and purified using the protocol described by Cohen et al (Cohen P, Alemany S, Hemmings B A, Resink T J, Stralfors P, Tung H Y. Protein phosphatase-1 and protein phosphatase 2A from rabbit skeletal muscle. Methods Enzymol 1988 159, 390-408), or that described by Bosch et al (Bosch M, Cayla X, Van Hoof C, Hemmings B A, Ozon R, Merlevede W, Goris J. the PR55 and PR65 subunits of protein phosphatase 2A from Xenopus laevis. Molecular cloning and developmental regulation of expression. Eur J Biochem 1995, 230, 1037-45).
as §1, §2, §3, §4, §5

[3] = test system: Hela cells; assay: Cell viability test (MTT); type: cell-based, human; details: 72 h, increasing peptide concentrations (FIG. 4)
Description: Hela cells (10^4 for 100 μl) were seeded into 96-well plates (flat bases) with complete DMEM medium containing 2.5% penicillin/ampicillin and 10% foetal calf serum. After incubating overnight at 37° C. in a CO2 oven (5%), the cells were cultivated in the presence of different peptide concentrations. After incubating for 72 h, the medium containing the peptides was aspirated and the MTT at 0.5 mg/ml (diluted in DMEM alone) was added in an amount of 100 μl per well. Incubation was carried out in the dark at 37° C. for 30 minutes then the MTT was aspirated off and 50 μl of DMSO was added to all wells. It was necessary to wait ten minutes for complete lysis of the cells and to agitate the lysate well to homogenize dissolution of the reaction product in the wells. The plates were then read at 570 nm with a 690 nm reference filter.

[4] = test system: Hela cells; assay: Cell penetration test (biotinylated peptide-avidine peroxidase complexes); type: cell-based, human; details: biotinylated peptides, 4 hours incubation (FIG. 3)
Description: We analyzed the Hela line, which is derived from a human cervical carcinoma.
0.1 M Tris buffer, pH 8 containing 0.5% NP40.
25.7 ml of 0.2 M dibasic sodium phosphate+24.3 ml of 0.1 M citric acid+50 ml distilled water; adjust to pH 5.0.
4 moles of peptides were incubated with 1 mole of avidine-peroxidase. 20 minutes at ambient temperature.
Hela cells (10^4 in […]) were seeded into 96-well plates (flat bases) with complete DMEM medium in the presence of 2.5% penicillin/ampicillin and 10% foetal calf serum. After incubating overnight at 37° C. in a CO2 oven (5%), different dilutions of complexes (biotinylated-avidine peroxidase peptides) were added. After incubating for 4 hours the supernatant was aspirated and the cells were washed 3 times with PBS, trypsinated and taken up for counting in PBS. After counting, the cells were taken up in 300 μl of lysis buffer.
50 μl of OPD buffer was incubated in a 96 well ELISA plate with 50 μl of lysis buffer or 50 μl of cell lysate (in general, different successive dilutions were carried out (to ½)). In order to reveal, 50 μl of OPD solution was added (in the dark). The reaction (about 10 min) was stopped with 100 μl of 1N HCl.
The peroxidase activity was determined by reading at 490 nm in the ELISA reader (reference filter at 620 nm) and the quantity of peroxidase in the lysates was calculated from the calibration curve then extrapolated to the same number of cells (10^3 or 10^4): Peptide molecules=(6*10^23/MW of peptide)*ng of PO*10^−9. A.4. Cell Viability Test

T1 sequence (P54612 whole entry): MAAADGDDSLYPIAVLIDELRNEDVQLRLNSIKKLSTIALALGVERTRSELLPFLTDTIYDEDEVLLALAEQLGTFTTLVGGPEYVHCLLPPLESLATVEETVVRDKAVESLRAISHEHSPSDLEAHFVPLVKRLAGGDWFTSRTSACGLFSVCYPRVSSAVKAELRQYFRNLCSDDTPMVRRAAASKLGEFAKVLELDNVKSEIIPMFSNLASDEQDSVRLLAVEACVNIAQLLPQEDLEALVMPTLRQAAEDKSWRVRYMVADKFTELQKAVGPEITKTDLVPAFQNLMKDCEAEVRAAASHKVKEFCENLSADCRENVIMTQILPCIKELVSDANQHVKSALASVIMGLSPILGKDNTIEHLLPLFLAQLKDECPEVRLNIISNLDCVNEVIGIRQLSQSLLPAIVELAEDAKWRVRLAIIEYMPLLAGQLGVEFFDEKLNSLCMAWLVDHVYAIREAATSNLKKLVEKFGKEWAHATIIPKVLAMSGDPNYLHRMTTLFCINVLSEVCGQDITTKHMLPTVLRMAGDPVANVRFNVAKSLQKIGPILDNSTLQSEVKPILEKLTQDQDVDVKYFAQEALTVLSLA
T1 sequence (P67776 whole entry partner): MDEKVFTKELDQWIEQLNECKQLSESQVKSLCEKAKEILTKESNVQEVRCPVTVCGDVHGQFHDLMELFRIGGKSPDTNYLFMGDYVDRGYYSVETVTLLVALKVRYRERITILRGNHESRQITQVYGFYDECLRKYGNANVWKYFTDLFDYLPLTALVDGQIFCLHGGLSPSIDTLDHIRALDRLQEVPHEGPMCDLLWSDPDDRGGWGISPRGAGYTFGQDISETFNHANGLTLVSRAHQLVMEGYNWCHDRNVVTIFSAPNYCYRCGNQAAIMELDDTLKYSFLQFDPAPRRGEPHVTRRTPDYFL
T2 sequence (P30153 whole entry): as the sequence (P54612 whole entry) above, with T324S counted along it

Row | Substance | binding to the structural subunit A of PP2A [2] | intracellular penetration into Hela cells [4] | further results
1 | LIDWGLAEFYHP (listed as Theileria parva) [peptide 131] |  |  | binding PP2A ([1]; FIG. 2, subunit A or holoenzyme not given): capable of binding PP2A
2 | SRIGIIQQRRTR (Human immunodeficiency virus) [SEQ ID No: 11] | binding the subunit A of PP2A |  | 
3 | (AHSRIG)3 (AHSRIGAHSRIGAHSRIG; listed as Theileria parva) [FD12] |  |  | effect on viability of Hela cells [3]: affects the viability of the Hela cell
4 | VEALIRILQQLLFIHFRI [HIV-1 Vpr site 2] | containing a binding site |  | 
5 | VEALIRILQQLL [SEQ ID No: 6] | binding the subunit A of PP2A |  | 
6 | ALIRILQQLLFI (Human immunodeficiency virus) [SEQ ID No: 7] | binding the subunit A of PP2A |  | 
7 | ILQQLLFIHFRI (Human immunodeficiency virus) [SEQ ID No: 9] | binding the subunit A of PP2A |  | 
8 | (RQKRLI)3 (RQKRLIRQKRLIRQKRLI; listed as Theileria parva) [FD7] |  | possibility of penetrating into the Hela cell | 
9 | KILRLIDWGLAEFYHP (listed as Theileria parva) [T parva CK2α site 3] | containing a binding site |  | binding to the trimeric holoenzyme PP2A1 [1]: containing a binding site
10 | RHSRIGVTRQRRARNG [FD13] |  | possibility of penetrating into the Hela cell | effect on viability of Hela cells [3]: absence of the biological effect
11 | IRILQQLLFIHF (Human immunodeficiency virus) [SEQ ID No: 8] | binding the subunit A of PP2A |  | 
12 | RHSRIGIIQQRR (Human immunodeficiency virus) [SEQ ID No: 10] | binding the subunit A of PP2A |  | 
13 | VKKKKIKREIKI (listed as Theileria parva) [FD6] |  | possibility of penetrating into the Hela cell | effect on viability of Hela cells [3]: does not affect the viability
14 | (RHSRIG)3 (RHSRIGRHSRIGRHSRIG; listed as Theileria parva) [FD11] |  | possibility of penetrating into the Hela cell | 
15 | IGIIQQRRTRNG (Human immunodeficiency virus) [SEQ ID No: 12] | binding the subunit A of PP2A |  | 
16 | RHSRIGIIQQRRTRNG [FD14] | containing a binding site | possibility of penetrating into the Hela cell; also recorded: penetrating peptides | effect on viability of Hela cells [3]: clearly affects the viability of Hela cells; binding to the trimeric holoenzyme PP2A1 [1]: containing a binding site
17 | RRRRRRRSRGRRRRTY (listed as Theileria parva) [FD8, peptide derived from protamine] |  | possibility of penetrating into the Hela cell; also recorded: penetrating peptides | effect on viability of Hela cells [3]: affects the viability of Hela cells
18 | TVTKDKCVIKILKPVKKKKIKREIKILQNL (listed as Theileria parva) [T parva CK2α site 2] | containing a binding site |  | 
19 | RKIGRGKFSEVFEG (listed as Theileria parva) [T parva CK2α site 1] | containing a binding site |  | 
